Data: patent publication US20230266303A1, “SYSTEM” (GTINVENT LIMITED, priority 2020, published 2023)
“Also recorded” adds a separate entry of the source.

Tests used:
Assay type in all cases: biochemical
[1] = target: T1, dGAE (Homo sapiens, UniProt P10636); experiment: Tau aggregation inhibition assay in vitro, circular dichroism; conditions: 100 μM dGAE + 25 μM s1D12 (4:1)
T1 construct: dGAE, corresponding to amino acid residues 297-391 using numbering from 2N4R tau; made in house
Method: (§1) dGAE protein was diluted into 10 mM phosphate buffer, pH 7.4 (PB) with monoclonal antibody s1 D12 at a ratio of 4:1 protein:Ab (100 μM dGAE+25 μM s1D12 and 10 μM dGAE+2.5 μM s1D12) or 1:1 (25 μM dGAE+25 μM s1D12).
(§2) As a positive control, dGAE was prepared at a final concentration of 10, 25 or 100 μM in 10 mM PB. Negative controls consisted of dGAE with a non-tau IgG antibody at a ratio of 4:1 (10 μM dGAE+2.5 μM anti-ovalbumin), or antibody alone (25 or 2.5 μM s1D12 and 2.5 μM anti-ovalbumin). Samples were agitated at 700 rpm at 37° C. for 3 days.
(§3) For CD, 60 μL sample was placed in a 0.1 mm quartz cuvette and placed into a JASCO spectropolarimeter. 100 μL ThS in 20 mM MOPS buffer was added to 50 μL of each sample to a final concentration of 20 μM, mixed well, incubated at room temperature for 10 minutes then fluorescence intensity measured in a Cary Eclipse spectrophotometer using an excitation wavelength of 440 nm. Baseline readings from 10 mM PB were subtracted from CD and ThS measurements.

[2] = target: T1, dGAE; experiment: Tau aggregation inhibition assay in vitro, Thioflavin S fluorescence; conditions: 25 μM (1:1) and 100 μM (4:1) dGAE with s1D12
Method: as §1, §2, §3

[3] = target: T1, dGAE; experiment: Tau aggregation inhibition assay in vitro, TEM
Method: as §1, §2
Transmission electron microscopy (TEM), circular dichroism (CD) and Thioflavin S (ThS) assays were performed as detailed in Al-Hilaly et. al. (2018) J. Mol. Biol. 430, 4119-4131. Briefly, TEM grids were prepared by adding 4 μL of sample to a carbon-coated grid followed by a wash with milli-Q filtered water then staining twice with 2% uranyl acetate. Grids were air dried and then imaged using a JEOL electron microscope operating at 80 kV.

T1 sequence (P10636 614-708): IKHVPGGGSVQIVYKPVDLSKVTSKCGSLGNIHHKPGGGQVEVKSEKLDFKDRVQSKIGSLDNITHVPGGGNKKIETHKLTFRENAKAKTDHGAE

B1: s1D12: monoclonal antibody binding tau epitope within residues 337 to 349 or 341 to 353 of SEQ ID NO: 1 (antibody)
heavy: QVQLQESGPSLVKPSQTLSLTCTVSGFSLNNNAVGWVRQAPGKVPESLVGCSSDGTCYYNSALKSRLDITRDTSKNQISLSLSSVTTDDAAVYYCTRGHYSIYGYDYLGTIDYWGPGLLVTVSSAKTTAPSVYPLAPVCGDTTGSSVTLGCLVKGYFPEPVTLTWNSGSLSSGVHTFPAVLQSDLYTLSSSVTVTSSTWPSQSITCNVAHPASSTKVDKKIEPRGPTIKPCPPCKCPAPNLLGGPSVFIFPPKIKDVLMISLSPIVTCVVVDVSEDDPDVQISWFVNNVEVHTAQTQTHREDYNSTLRVVSALPIQHQDWMSGKEFKCKVNNKDLPAPIERTISKPKGSVRAPQVYVLPPPEEEMTKKQVTLTCMVTDFMPEDIYVEWTNNGKTELNYKNTEPVLDSDGSYFMYSKLRVEKKNWVERNSYSCSVVHEGLHNHHTTKSFSRTPGK
light: QAVLTQPSSVSGSLGQRVSITCSGSSSNVGGGNSVGWYQHLPGSGLKTIIYDTNSRPSGVPDRFSGSRSGNTATLTINSLQAEDEGDYYCVTGDSTTHDDLVGSGTRLTVLGGQPKSSPSVTLFPPSSEELETNKATLVCTITDFYPGVVTVDWKVDGTPVTQGMETTQPSKQSNNKYMASSYLTLTARAWERHSSYSCQVTHEGHTVEKSLSRADCS
- dGAE secondary structure in presence of antibody (CD, antibody spectrum subtracted) [1]: dGAE cannot assemble into 3-sheet rich fibrils
- dGAE secondary structure in presence of antibody (CD, antibody spectrum subtracted) ([1]; listed as s1 D12): dGAE has not assembled into fibrils
- ThS emission peak at 483 nm of dGAE in presence of antibody [2]: this signal was abolished
- ThS emission peak at 483 nm of dGAE in presence of antibody ([2]; listed as s1 D12): abolished
- overall effect on assembly of dGAE into fibrils ([3]; collective finding of TEM, CD and ThS experiments): inhibits the assembly of dGAE into fibrils in vitro; also recorded: specifically inhibits the assembly of dGAE into fibrils
- fibril formation of dGAE in presence of antibody (TEM) ([3]; dGAE:antibody 4:1 or 1:1 (anti-ovalbumin 4:1, 10 μM dGAE), 700 rpm, 37° C., 3 days): no fibril formation is observed; also recorded: no fibrils were present
